B1: Membrane protein MLC1 (Homo sapiens), Q15049 (parent)
chain: MTQEPFREELAYDRMPTLERGRQDPASYAPDAKPSDLQLSKRLPPCFSHKTWVFSVLMGSCLLVTSGFSLYLGNVFPAEMDYLRCAAGSCIPSAIVSFTVSRRNANVIPNFQILFVSTFAVTTTCLIWFGCKLVLNPSAININFNLILLLLLELLMAATVIIAARSSEEDCKKKKGSMSDSANILDEVPFPARVLKSYSVVEVIAGISAVLGGIIALNVDDSVSGPHLSVTFFWILVACFPSAIASHVAAECPSKCLVEVLIAISSLTSPLLFTASGYLSFSIMRIVEMFKDYPPAIKPSYDVLLLLLLLVLLLQAGLNTGTAIQCVRFKVSARLQGASWDTQNGPQERLAGEVARSPLKEFDKEKAWRAVVVQMAQ

Variants of: B1
Conditions: with at1b1_human ATP1B1, P05026

effect of a mutation on the interaction | Variant
disrupting interaction | MTQEPFREELAYDRMPTLERGRQDPASYAPDAKPSDLQLSKRLPPCFSHKTWVFSVLMGSCLLVTSGFSLYLGNVFPAEMDYLRCAAGSCIPSAIVSFTVSRRNANVIPNFQILFVSTFAVTTTCLIWFGCKLVLNPSAININFNLILLLLLELLMAATVIIAARSSEEDCKKKKGSMSDSANILDEVPFPARVLKSYSVVEVIAGISAVLGGIIALNVDDSVSGPHLSVTFFWILVACFPSAIASHVAAECPSKCLVEVLIAISSLTSPLLFTASGYLLFSIMRIVEMFKDYPPAIKPSYDVLLLLLLLVLLLQAGLNTGTAIQCVRFKVSARLQGASWDTQNGPQERLAGEVARSPLKEFDKEKAWRAVVVQMAQ [S280L]
disrupting interaction | MTQEPFREELAYDRMPTLERGRQDPASYAPDAKPSDLQLSKRLPPCFSHKTWVFSVLMGSCLLVTSGFSLYLGNVFPAEMDYLRCAAGSCIPSAIVSFTVSRRNANVIPNFQILFVSTFAVTTTRLIWFGCKLVLNPSAININFNLILLLLLELLMAATVIIAARSSEEDCKKKKGSMSDSANILDEVPFPARVLKSYSVVEVIAGISAVLGGIIALNVDDSVSGPHLSVTFFWILVACFPSAIASHVAAECPSKCLVEVLIAISSLTSPLLFTASGYLSFSIMRIVEMFKDYPPAIKPSYDVLLLLLLLVLLLQAGLNTGTAIQCVRFKVSARLQGASWDTQNGPQERLAGEVARSPLKEFDKEKAWRAVVVQMAQ [C125R]

Variants of: B1
Conditions: with at1b1_human ATP1B1, P05026
Remark: another data set of the same source

effect of a mutation on the interaction | Variant
decreasing interaction | MTQEPFREELAYDRMPTLERGRQDPASYAPDAKPSDLQLSKRLPPCFSHKTWVFSVLMGSCLLVTSGFSLYLGNVFPAEMDYLRCAAGSCIPSAIVSFTVSRRNANVIPNFQILFVSTFAVTTTCLIWFGCKLVLNPSAININFNLILLLLLELLMAATVIIAARSSEEDCKKKKGSMSDSANILDEVPFPARVLKSYSVVEVIAGISAVLGGIIALNVDDSVSGPHLSVTFFWILVACFPSAIASHVAAECPSKCLVEVLIAISSLTSPLLFTASGYLLFSIMRIVEMFKDYPPAIKPSYDVLLLLLLLVLLLQAGLNTGTAIQCVRFKVSARLQGASWDTQNGPQERLAGEVARSPLKEFDKEKAWRAVVVQMAQ [S280L]
decreasing interaction | MTQEPFREELAYDRMPTLERGRQDPASYAPDAKPSDLQLSKRLPPCFSHKTWVFSVLMGSCLLVTSGFSLYLGNVFPAEMDYLRCAAGSCIPSAIVSFTVSRRNANVIPNFQILFVSTFAVTTTCLIWFGCKLVLNPSAININFNLILLLLLELLMAATVIIAARSSEEDCKKKKGSMSDSANILDEVPFPARVLKSYSVVEVIAGISAVLGGIIALNVDDSVSGPHLSVTFFWILVACFPSAIARHVAAECPSKCLVEVLIAISSLTSPLLFTASGYLSFSIMRIVEMFKDYPPAIKPSYDVLLLLLLLVLLLQAGLNTGTAIQCVRFKVSARLQGASWDTQNGPQERLAGEVARSPLKEFDKEKAWRAVVVQMAQ [S246R]

Reference: IntAct's records for PubMed 22328087
